Assay results taken from patent US20110150903A1 (Sanofi, published 2011).
Several values for one entry are separate records, joined by “and”; a condition that tells them apart may be missing. Equal entries are not always repeated.

T1: hFGFR3-Fc (human, UniProt P22607 23-375)
T1 construct: extracellular domain; Bought from R&D Systems; not shown: Fc domain of human IgG1
T1 sequence (looked up): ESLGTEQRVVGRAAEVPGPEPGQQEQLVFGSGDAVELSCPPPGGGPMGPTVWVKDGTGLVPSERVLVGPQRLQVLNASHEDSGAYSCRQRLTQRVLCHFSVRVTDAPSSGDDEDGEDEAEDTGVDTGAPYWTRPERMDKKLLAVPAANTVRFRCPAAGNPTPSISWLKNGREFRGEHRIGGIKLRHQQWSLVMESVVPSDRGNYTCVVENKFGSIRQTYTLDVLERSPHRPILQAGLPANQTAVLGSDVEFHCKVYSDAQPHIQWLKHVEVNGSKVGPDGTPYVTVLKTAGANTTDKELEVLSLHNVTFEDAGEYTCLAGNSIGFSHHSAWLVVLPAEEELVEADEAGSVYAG


What was measured:
hFGFR4_D3:Fc (SABVA4799) = target: T2, hFGFR4_D3:Fc (SABVA4799) (human); test: ELISA on coated subdomain-Fc construct
T2 construct: also called fGFGR4_D3::Fc
Source text: (§1) The capture antigen was bound to Immulon-4 enzyme-linked plates (VWR Scientific Inc. Swedesboro, N.J.).

hFGFR4_D1:Fc (SABVA4794) = target: T3, hFGFR4_D1:Fc (SABVA4794) (human); test: ELISA on coated subdomain-Fc construct
T3 construct: FGF-R4_HUMAN positions 1 to 179 fused to the Fc domain of human IgG1; also called fGFGR4_D1::Fc
Source text: as §1

hFGFR4_D2:Fc (SABVA4796) = target: T4, hFGFR4_D2:Fc (SABVA4796) (human); test: ELISA on coated subdomain-Fc construct
T4 construct: FGF-R4_HUMAN positions 1 to 32 plus 145 to 242 fused to the Fc domain of human IgG1; also called fGFGR4_D2::Fc
Source text: as §1

[1] = target: T5, mouse FGF-R4 expressed on transfected 300-19 cells (mouse, UniProt Q03142 17-799); test: displacement of labelled murine FGF2 from mouse FGF-R4 on 300-19 cells; mouse FGF-R4, murine FGF2; in ng/ml
T5 construct: whole, on cells; also called murine FGF-R4
Procedure: (§2) Firstly, competition binding experiments were carried out.
(§3) The dissociation experiments were carried out using the 300-19 lines transfected with mouse or rat FGF-R4 receptors.

[2] = target: T6, human FGF-R4 recombinant extracellular domain protein, construct not named (human, UniProt P22455 22-369); test: SPR (BIAcore), antibody captured by anti-Fc antibody on the chip
T6 construct: extracellular domain; also called the FGF-R4 protein; complete extracellular domain of human FGF-R4

[3] = target: T7, rat FGF-R4 expressed on transfected 300-19 cells (rat, UniProt Q498D6 17-800); test: displacement of labelled rat FGF2 from rat FGF-R4 on 300-19 cells; rat FGF-R4, rat FGF2; in ng/ml
T7 construct: also called rFGFR4
Procedure: as §2, §3

[4] = target: T8, human FGF-R4 expressed on cells (human, UniProt P22455 22-802); test: displacement of FGF2-AF488 (10 ng/ml) from human FGF-R4 on 300-19 cells
T8 construct: whole, on cells; Functional assays: endogenous receptor of human Hep3b and HUVEC cells; also called human FGF-R4s expressed at the surface of transfected 300-19 cells; FGF-R4 of Hep3b and HUVEC cells

hFGFR1-Fc [5] = target: T9, hFGFR1-Fc (human); test: ELISA on plates coated with the 4 human FGF receptors, antibody concentration not given
T9 construct: Extracellular domain of human FGF-R1 IIIc fused C-terminally to the Fc domain of human IgG1

hFGFR3-Fc [6] = target: T1, hFGFR3-Fc; test: as above
hFGFR2-Fc [7] = target: T10, hFGFR2-Fc (human); test: as above
T10 construct: Extracellular domain of human FGF-R2 IIIc fused C-terminally to the Fc domain of human IgG1

hFGFR4-Histag [8] = target: T11, hFGFR4-Histag (human, UniProt P22455 22-365); test: SPR (BIAcore 3000)
T11 construct: also called SABVA4614

mFGFR4-Histag [9] = target: T12, mFGFR4-Histag (murine, UniProt Q03142 19-362); test: SPR (BIAcore 3000)
T12 construct: also called murine protein mFGFR4; murine FGF-R4

hFGFR4-Histag [10] = target: T11, hFGFR4-Histag; test: ELISA, HEK293 supernatant IgG on coated antigen
Source text: as §1

hFGFR4(D2,D3)-Histag [11] = target: T13, hFGFR4(D2,D3)-Histag (human, UniProt P22455 22-365); test: ELISA, HEK293 supernatant IgG on coated antigen
T13 construct: also called extracellular domain of FGF-R4 deleted of its D1 domain
Source text: as §1

hFGFR1-Fc [12] = target: T9, hFGFR1-Fc; test: phage Fab ELISA on coated antigen, anti-M13 detection
Source text: (§4) The specificity of each antibody is established by ELISA according to the following protocol: suspensions of phages displaying, at their surface, the antibodies in the Fab format are generated by infection of E. coli bacteria. The capture antigens were bound to Immulon-2 enzyme-linked dishes (VWR Scientific Inc. Swedesboro, N.J.).

hFGFR3-Fc [13] = target: T1, hFGFR3-Fc; test: as above
Source text: as §4

hFGFR2-Fc [14] = target: T10, hFGFR2-Fc; test: as above
Source text: as §4

hFGFR4(D2,D3)-Histag [15] = target: T13, hFGFR4(D2,D3)-Histag; test: as above
Source text: as §4

hFGFR3-Fc [16] = target: T1, hFGFR3-Fc; test: ELISA on plates coated with the 4 human FGF receptors, single condition, antibody concentration not given
mFGFR4-Histag [17] = target: T12, mFGFR4-Histag; test: ELISA on coated FGF-R4 constructs, single condition, antibody concentration not given

Row | Binder | Kd (hFGFR4-Histag [8]) | koff (hFGFR4-Histag [8]) | kon (hFGFR4-Histag [8]) | Kd (mFGFR4-Histag [9]) | koff (mFGFR4-Histag [9]) | kon (mFGFR4-Histag [9]) | OD signal at 450 nm (hFGFR4-Histag [10]) | OD signal at 450 nm (hFGFR4(D2,D3)-Histag [11]) | ELISA signal (OD, 450 nm) (hFGFR1-Fc [12]) | ELISA signal (OD, 450 nm) (hFGFR3-Fc [13]) | ELISA signal (OD, 450 nm) (hFGFR2-Fc [14]) | ELISA signal (OD, 450 nm) (hFGFR4(D2,D3)-Histag [15]) | also measured
1 | anti-FGFR4 antagonist monoclonal antibody 40-12 (antibody, mouse IgG1, kappa, V domains shown, Purified on protein G; also called clone 40-12; anti-FGFR4 40-12) VH: not shown VL: DIVLTQSPATLSVTPGDRVSLSCRASQSISNYLHWYQQKSHESPRLLIKYASQSISGIPSRFSGSGSGTDFILSFNSVETEDFGMYFCQQSNSWPFTFGSGTKLEIKR |  |  |  |  |  |  |  |  |  |  |  |  | Signal (O.D., 450 nm) (hFGFR4_D3:Fc (SABVA4799)): 0.105 O.D. 450 nm; Signal (O.D., 450 nm) (hFGFR4_D1:Fc (SABVA4794)): 0.185 O.D. 450 nm; Signal (O.D., 450 nm) (hFGFR4_D2:Fc (SABVA4796)): 3 O.D. 450 nm; IC50 [1]: 4.11 mg/L; Kd [2]: 6.5 nM; koff [2]: 0.00126 s⁻¹; kon [2]: 194000 M⁻¹ s⁻¹; IC50 [3]: 3.94 mg/L; IC50 [4]: 3.5 µg/mL and 23 nM; binding result (hFGFR1-Fc [5]): no binding; binding result (hFGFR3-Fc [6]): no binding; binding result (hFGFR2-Fc [7]): no binding
2 | anti-FGFR4 antibody clone 31 (human IgG1 format) (antibody, V domains shown, As for clone 8: human IgG1 format from HEK293; also called antibody 31) VH: EVQLLESGGGLVQPGGSLRLSCAASGFTFSRYFMKWVRQAPGKGLEWVSWISPSGGLTEYADSVKGRFTISRDNSKNTLYLQMNSLRAEDTAVYYCARASYGAWLDYWGQGTLVTVSS VL: DIQMTQSPSSLSLSPGERATLSCRASQSINRNLGWYQQKPGQAPRLLIYGASTRATGIPARFTGSGSGTEFSLTISSLQSEDYAIYYCQQYDNWPIIFGQGTRLEIKG | 1.52 nM | 0.00098 s⁻¹ | 648000 M⁻¹ s⁻¹ | 1.97 nM | 0.0018 s⁻¹ | 914000 M⁻¹ s⁻¹ | 3.86 OD 450 nm | 3.74 OD 450 nm |  |  |  |  | 
3 | clone 31 in the Fab format displayed on phage (Fab, V domains shown) VH: EVQLLESGGGLVQPGGSLRLSCAASGFTFSRYFMKWVRQAPGKGLEWVSWISPSGGLTEYADSVKGRFTISRDNSKNTLYLQMNSLRAEDTAVYYCARASYGAWLDYWGQGTLVTVSS VL: DIQMTQSPSSLSLSPGERATLSCRASQSINRNLGWYQQKPGQAPRLLIYGASTRATGIPARFTGSGSGTEFSLTISSLQSEDYAIYYCQQYDNWPIIFGQGTRLEIKG |  |  |  |  |  |  |  |  | 0 OD 450 nm | 0.01 OD 450 nm | 0 OD 450 nm | 2.52 OD 450 nm | 
4 | anti-FGFR4 antibody clone 36 (human IgG1 format) (antibody, V domains shown, As for clone 8: human IgG1 format from HEK293; also called antibody 36) VH: EVQLLESGGGLVQPGGSLRLSCAASGFTFSHYWMGWVRQAPGKGLEWVSVISPSGGLTIYADSVKGRFTISRDNSKNTLYLQMNSLRAEDTAVYYCARSSGWALDAFDIWGQGTMVTVSS VL: QYELTQPPSASGTPGQRVTISCSGSSSNIGSNIVHWYQQLPGTAPKLLIYGNNQRPSGVPDRFSVSKSGSSASLAISGLQSEDEADYYCASWDDSLKAFYVFGTGTKVTVLG | 2.62 nM | 0.000631 s⁻¹ | 244000 M⁻¹ s⁻¹ | 2.28 nM | 0.000752 s⁻¹ | 330000 M⁻¹ s⁻¹ | 3.75 OD 450 nm | 3.62 OD 450 nm |  |  |  |  | 
5 | clone 36 in the Fab format displayed on phage (Fab, V domains shown) VH: EVQLLESGGGLVQPGGSLRLSCAASGFTFSHYWMGWVRQAPGKGLEWVSVISPSGGLTIYADSVKGRFTISRDNSKNTLYLQMNSLRAEDTAVYYCARSSGWALDAFDIWGQGTMVTVSS VL: QYELTQPPSASGTPGQRVTISCSGSSSNIGSNIVHWYQQLPGTAPKLLIYGNNQRPSGVPDRFSVSKSGSSASLAISGLQSEDEADYYCASWDDSLKAFYVFGTGTKVTVLG |  |  |  |  |  |  |  |  | -0.01 OD 450 nm | -0.02 OD 450 nm | -0.01 OD 450 nm | 1.87 OD 450 nm | 
6 | anti-FGFR4 antibody 64-12 (antibody, mouse IgG1, V domains shown, also called clone 64-12; control antibody 64-12) VH: DVQLVESGGGLVQPGGSRKLSCAASGFTFSNFGMHWVRQAPEKGLEWVAYISSGSSTIYYADTVKGRFTISRDNPKNTLFLQMTSLRSEDTAMYYCARYDYDDDYYAMEYWGQGTSVTVSS VL: QAVVTQESALTTSPGETVTLTCRSSTGAVTTSNYANWVQEKPDHLFTGLIGGTNNRAPGVPARFSGSLIGDKAALTITGAQTEDEAIYFCALWYSNHWVFGGGTKLTVLG |  |  |  |  |  |  |  |  |  |  |  |  | Kd [2]: 57.5 nM; koff [2]: 0.000602 s⁻¹; kon [2]: 10500 M⁻¹ s⁻¹; binding result (hFGFR3-Fc [16]): binds; binding result (mFGFR4-Histag [17]): binds
7 | anti-FGFR4 antibody clone 33 (human IgG1 format) (antibody, V domains shown, As for clone 8: human IgG1 format from HEK293; also called antibody 33) VH: EVQLLESGGGLVQPGGSLRLSCAASGFTFSTYWMAWVRQAPGKGLEWVSVIGPSGGMTVYADSVKGRFTISRDNSKNTLYLQMNSLRAEDTAVYYCARINSGSSHFDYWGQGTLVTVSS VL: QSVLTQPPSASGTPGQGVTISCSGSSSNIGSNSVNWYQQLPGAAPKLLIYSNNLRPSGVPARFSGSKSGTSASLAISGLRSEDEADYYCAAWDDGLDAYVVFGGGTKLTVLG | 0.771 nM | 0.000617 s⁻¹ | 805000 M⁻¹ s⁻¹ | 0.692 nM | 0.000704 s⁻¹ | 1.01e+06 M⁻¹ s⁻¹ | 3.75 OD 450 nm | 3.62 OD 450 nm |  |  |  |  | 
8 | clone 33 in the Fab format displayed on phage (Fab, V domains shown) VH: EVQLLESGGGLVQPGGSLRLSCAASGFTFSTYWMAWVRQAPGKGLEWVSVIGPSGGMTVYADSVKGRFTISRDNSKNTLYLQMNSLRAEDTAVYYCARINSGSSHFDYWGQGTLVTVSS VL: QSVLTQPPSASGTPGQGVTISCSGSSSNIGSNSVNWYQQLPGAAPKLLIYSNNLRPSGVPARFSGSKSGTSASLAISGLRSEDEADYYCAAWDDGLDAYVVFGGGTKLTVLG |  |  |  |  |  |  |  |  | 0 OD 450 nm | -0.01 OD 450 nm | 0 OD 450 nm | 2.73 OD 450 nm | 
9 | anti-FGFR4 antibody clone 8 (human IgG1 format) (antibody, V domains shown, also called antibody 8) VH: EVQLLESGGGLVQPGGSLRLSCAASGFTFSPYWMGWVRQAPGKGLEWVSVIWPSGGTTDYADSVKGRFTISRDNSKNTLYLQMNSLRAEDTAVYYCARVHPAGHNDHWGQGTLVTVSS VL: QSELTQPPSASGTPGQRVTISCSGGYSNMGSNYAHWYQQLPGTAPKLLIYNNNQRPSGVPDRFSGSKSGTSASLAISGLRSEDEADYYCAAWDDSLSGPVFGGGTKLTVLG | 0.327 nM | 0.000292 s⁻¹ | 893000 M⁻¹ s⁻¹ | 0.115 nM | 0.000136 s⁻¹ | 1.2e+06 M⁻¹ s⁻¹ | 3.9 OD 450 nm | 3.86 OD 450 nm |  |  |  |  | 
10 | clone 8 in the Fab format displayed on phage (Fab, V domains shown) VH: EVQLLESGGGLVQPGGSLRLSCAASGFTFSPYWMGWVRQAPGKGLEWVSVIWPSGGTTDYADSVKGRFTISRDNSKNTLYLQMNSLRAEDTAVYYCARVHPAGHNDHWGQGTLVTVSS VL: QSELTQPPSASGTPGQRVTISCSGGYSNMGSNYAHWYQQLPGTAPKLLIYNNNQRPSGVPDRFSGSKSGTSASLAISGLRSEDEADYYCAAWDDSLSGPVFGGGTKLTVLG |  |  |  |  |  |  |  |  | 0.05 OD 450 nm | 0 OD 450 nm | 0 OD 450 nm | 2.55 OD 450 nm | 
